The values that follow come from patent US20240002464A1 (published 2024).

For this assay, the target named is T1, HPV16 E6 peptide on HLA-A*02:01 (human).
T1 peptide: TIHDIILECV
The assay is described as follows: Kd or kinetics. On the procedure:
In this example, the binding activity of the soluble TCR molecule obtained according to Example 2 to the […]-HLA A0201 complex was tested using a BIAcore T200 real-time analysis system. The […]-HLA A0201 complex was prepared by methods well known to those skilled in the art, mainly including purification, renaturation, repurification, and biotinylation. The anti-streptavidin antibody (GenScript) was added to the coupling buffer (10 mM sodium acetate buffer, pH 4.77), and then the antibody was passed through a CMS chip previously activated with EDC and NHS so that the antibody was immobilized on the chip surface, and finally the unreacted activated surface was blocked with a solution of ethanolamine in hydrochloric acid to complete the coupling. The coupling was at a level of about 15,000 RU. A low concentration of streptavidin was allowed to flow through the surface of the chip coated with the antibody, then the […]-HLA A0201 complex was allowed to flow through a detection channel, with the other channel serving as a reference channel. Then 0.05 mM of biotin was allowed to flow through the chip at a flow rate of 10 μL/min for 2 minutes, blocking the remaining binding site for streptavidin.
The kinetic parameters were calculated using the BIAcore Evaluation software to obtain the binding kinetic profiles of the soluble TCR molecules of the present disclosure binding to the […]-HLA A0201 complex, respectively, as shown in FIGS. 7a-7d. […] Also, the binding activity of the soluble TCR molecule of the present disclosure to several complexes of other unrelated antigen short peptides and HLA was also tested by the method.

B1: TCR1 (TCR, V domains shown)
Valpha: AQKVTQAQTEISVVEKEDVTLDCVYETRDTTYYLFWYKQPPSGELVFLIRRNSFDEQNEISGRYSWNFQKSTSSFNFTITASQVVDSAVYFCALRAGANNLFFGTGTRLTVIP
Vbeta: NAGVTQTPKFQVLKTGQSMTLQCAQDMNHNSMYWYRQDPGMGLRLIYYSASEGTTDKGEVPNGYNVSRLNKREFSLRLESAAPSQTSVYFCASGPWGSSGNTIYFGEGSWLTVV
With B1, the binding result is “recognises”.

B2: TCR3 (TCR, V domains shown)
Valpha: AQKVTQAQTEISVVEKEDVTLDCVYETRDTTYYLFWYKQPPSGELVFLIRRNSFDEQNEISGRYSWNFQKSTSSFNFTITASQVVDSAVYFCALRAGANTPIFGTGTRLTVIP
Vbeta: NAGVTQTPKFQVLKTGQSMTLQCAQDMNHNSMYWYRQDPGMGLRLIYYSASEGTTDKGEVPNGYNVSRLNKREFSLRLESAAPSQTSVYFCASGPWGSSGNTIYFGEGSWLTVV
On to B2, for which the binding result is “recognises”.

B3: TCR2 (TCR, V domains shown)
Valpha: AQKVTQAQTEISVVEKEDVTLDCVYETRDTTYYLFWYKQPPSGELVFLIRRNSFDEQNEISGRYSWNFQKSTSSFNFTITASQVVDSAVYFCALRAGANLPVFGTGTRLTVIP
Vbeta: NAGVTQTPKFQVLKTGQSMTLQCAQDMNHNSMYWYRQDPGMGLRLIYYSASEGTTDKGEVPNGYNVSRLNKREFSLRLESAAPSQTSVYFCASGPWGSSGNTIYFGEGSWLTVV
Consider B3, for which the binding result was “recognises”.

B4: TCR4 (TCR, V domains shown)
Valpha: AQKVTQAQTEISVVEKEDVTLDCVYETRDTTYYLFWYKQPPSGELVFLIRRNSFDEQNEISGRYSWNFQKSTSSFNFTITASQVVDSAVYFCALRAGAWPMKFGTGTRLTVIP
Vbeta: NAGVTQTPKFQVLKTGQSMTLQCAQDMNHNSMYWYRQDPGMGLRLIYYSASEGTTDKGEVPNGYNVSRLNKREFSLRLESAAPSQTSVYFCASGPWGSSGNTIYFGEGSWLTVV
With B4, the binding result is reported as “recognises”.
